Assay results: the supplement of paper PMC5998384

Legend:
[1] = system: HeLa Kyoto; experiment: solubility in G1/S (NP-40 vs SDS abundance) (log2 ratio); higher = more soluble; conditions: cell cycle stage: G1/S
[2] = system: HeLa Kyoto; experiment: solubility change mitosis vs G1/S (difference of NP-40 vs SDS log2 ratios) (log2 ratio difference); higher = more soluble in mitosis
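For solubility change mitosis vs G1/S (difference of NP-40 vs SDS log2 ratios) in this document: synchronized HeLa Kyoto cells (double thymidine block for G1/S, nocodazole release for mitosis), protein amounts in NP-40 versus SDS lysates quantified by mass spectrometry, three biological replicates.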
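For solubility in G1/S (NP-40 vs SDS abundance) in this document: HeLa Kyoto cells arrested at G1/S by double thymidine block, proteins quantified by TMT10plex mass spectrometry in mild NP-40 versus SDS extracts, three biological replicates.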

Sequence	solubility in G1/S (log2) [1]	solubility change mitosis (log2) [2]
MLSPQRALLCNLNHIHLQHVSLGLHLSRRPELQEGPLSTPPPPGDTGGKESRGPCSGTLVDANSNSPAVPCRCCQEHGPGLENRQDPSQEEEGAASPSDPGCSSSLSSCSDLSPDESPVSVYLRDLPGDEDAHPQPSIIPLEQGSPLASAGPGTCSPDSFCCSPDSCSGASSSPDPGLDSNCNALTTCQDVPSPGLEEEDERAEQDLPTSELLEADDGKIDAGKTEPSWKINPIWKIDTEKTKAEWKTTENNNTGWKNNGNVNSSWKSEPEKFDSGWKTNTRITDSGSKTDAGKIDGGWRSDVSEEPVPHRTITSFHELAQKRKRGPGLPLVPQAKKDRSDWLIVFSPDTELPPSGSPGGSSAPPREVTTFKELRSRSRAPAPPVPPRDPPVGWALVPPRPPPPPVPPRRKKNRPGLQPIAEGQSEEGRAVSPAAGEEAPAAKEPGAQAGLEVRSSWSFAGVPGAQRLWMAEAQSGTGQLQEQKKGLLIAVSVSVDKIISHFGAARNLVQKAQLGDSRLSPDVGHLVLTTLCPALHALVADGLKPFRKDLITGQRRSSPWSVVEASVKPGSSTRSLGTLYSQVSRLAPLSSSRSRFHAFILGLLNTKQLELWFSSLQEDAGLLSLLYLPTGFFSLARGGCPSLSTELLLLLQPLSVLTFHLDLLFEHHHHLPLGPPQAPAPPGPPPALQQTMQAMLHFGGRLAQSLRGTSKEAASDPSDSPNLPTPGSWWEQLTQASRVYASGGTEGFPLSRWAPGRHGTAAEEGAQERPLPTDEMAPGRGLWLGRLFGVPGGPAENENGALKSRRPSSWLPPTVSVLALVKRGAPPEMPSPQELEASAPRMVQTHRAVRALCDHTAARPDQLSFRRGEVLRVITTVDEDWLRCGRDGMEGLVPVGYTSLVL [RUSC1]	0.182	-0.133
MMFGGYETIEAYEDDLYRDESSSELSVDSEVEFQLYSQIHYAQDLDDVIREEEHEEKNSGNSESSSSKPNQKKLIVLSDSEVIQLSDGSEVITLSDEDSIYRCKGKNVRVQAQENAHGLSSSLQSNELVDKKCKSDIEKPKSEERSGVIREVMIIEVSSSEEEESTISEGDNVESWMLLGCEVDDKDDDILLNLVGCENSVTEGEDGINWSISDKDIEAQIANNRTPGRWTQRYYSANKNIICRNCDKRGHLSKNCPLPRKVRRCFLCSRRGHLLYSCPAPLCEYCPVPKMLDHSCLFRHSWDKQCDRCHMLGHYTDACTEIWRQYHLTTKPGPPKKPKTPSRPSALAYCYHCAQKGHYGHECPEREVYDPSPVSPFICYYDDKYEIQEREKRLKQKIKVLKKNGVIPEPSKLPYIKAANENPHHDIRKGRASWKSNRWPQENKETQKEMKNKNRNWEKHRKADRHREVDEDFPRGPKTYSSPGSFKTQKPSKPFHRSSHYHTSREDKSPKEGKRGKQKKKERCWEDDDNDNLFLIKQRKKKS [ZCCHC7]	-2.02	0.926
MMGSKMASASRVVQVVKPHTPLIRFPDRRDNPKPNVSEALRSAGLPSHSSVISQHSKGSKSPDLLMYQGPPDTAEIIKTLPQKYRRKLVSQEEMEFIQRGGPE [MRPS36]	0.138	0.401
MMLSRAKPAVGRGVQHTDKRKKKGRKIPKLEELLSKRDFTGAITLLEFKRHVGEEEEDTNLWIGYCAFHLGDYKRALEEYENATKEENCNSEVWVNLACTYFFLGMYKQAEAAGFKASKSRLQNRLLFHLAHKFNDEKKLMSFHQNLQDVTEDQLSLASIHYMRSHYQEAIDIYKRILLDNREYLALNVYVALCYYKLDYYDVSQEVLAVYLQQIPDSTIALNLKACNHFRLYNGRAAEAELKSLMDNASSSFEFAKELIRHNLVVFRGGEGALQVLPPLVDVIPEARLNLVIYYLRQDDVQEAYNLIKDLEPTTPQEYILKGVVNAALGQEMGSRDHMKIAQQFFQLVGGSASECDTIPGRQCMASCFFLLKQFDDVLIYLNSFKSYFYNDDIFNFNYAQAKAATGNTSEGEEAFLLIQSEKMKNDYIYLSWLARCYIMNKKPRLAWELYLKMETSGESFSLLQLIANDCYKMGQFYYSAKAFDVLERLDPNPEYWEGKRGACVGIFQMIIAGREPKETLREVLHLLRSTGNTQVEYMIRIMKKWAKENRVSI [TTC26]	-0.122	-0.0547
MMPFGKISQQLCGVKKLPWSCDSRYFWGWLNAVFNKVDYDRIRDVGPDRAASEWLLRCGAMVRYHGQERWQKDYNHLPTGPLDKYKIQAIDATDSCIMSIGFDHMEGLEHVEKIRLCKCHYIEDDCLLRLSQLENLQKTILEMEIISCGNITDKGIIALRHLRNLKYLLLSDLPGVREKENLVQAFKTALPSLELKLQLK [ATP5S]	-0.164	-0.136
MMSEHDLADVVQIAVEDLSPDHPVVLENHVVTDEDEPALKRQRLEINCQDPSIKTICLRLDSIEAKLQALEATCKSLEEKLDLVTNKQHSPIQVPMVAGSPLGATQTCNKVRCVVPQTTVILNNDRQNAIVAKMEDPLSNRAPDSLENVISNAVPGRRQNTIVVKVPGQEDSHHEDGESGSEASDSVSSCGQAGSQSIGSNVTLITLNSEEDYPNGTWLGDENNPEMRVRCAIIPSDMLHISTNCRTAEKMALTLLDYLFHREVQAVSNLSGQGKHGKKQLDPLTIYGIRCHLFYKFGITESDWYRIKQSIDSKCRTAWRRKQRGQSLAVKSFSRRTPNSSSYCPSEPMMSTPPPASELPQPQPQPQALHYALANAQQVQIHQIGEDGQVQVGHLHIAQVPQGEQVQITQDSEGNLQIHHVGQDGQLLEATRIPCLLAPSVFKASSGQVLQGAQLIAVASSDPAAAGVDGSPLQGSDIQVQYVQLAPVSDHTAGAQTAEALQPTLQPEMQLEHGAIQIQ [BANP]	0.417	0.0132
MNKNTSTVVSPSLLEKDPAFQMITIAKETGLGLKVLGGINRNEGPLVYIQEIIPGGDCYKDGRLKPGDQLVSVNKESMIGVSFEEAKSIITGAKLRLESAWEIAFIRQKSDNIQPENLSCTSLIEASGEYGPQASTLSLFSSPPEILIPKTSSTPKTNNDILSSCEIKTGYNKTVQIPITSENSTVGLSNTDVASAWTENYGLQEKISLNPSVRFKAEKLEMALNYLGIQPTKEQHQALRQQVQADSKGTVSFGDFVQVARNLFCLQLDEVNVGAHEISNILDSQLLPCDSSEADEMERLKCERDDALKEVNTLKEKLLESDKQRKQLTEELQNVKQEAKAVVEETRALRSRIHLAEAAQRQAHGMEMDYEEVIRLLEAKITELKAQLADYSDQNKESVQDLKKRIMVLDCQLRKSEMARKTFEASTEKLLHFVEAIQEVFSDNSTPLSNLSERRAVLASQTSLTPLGRNGRSIPATLALESKELVKSVRALLDMDCLPYGWEEAYTADGIKYFINHVTQTTSWIHPVMSVLNLSRSEENEEDCSRELPNQKS [STXBP4]	0.308	-0.138
MNLQAQPKAQNKRKRCLFGGQEPAPKEQPPPLQPPQQSIRVKEEQYLGHEGPGGAVSTSQPVELPPPSSLALLNSVVYGPERTSAAMLSQQVASVKWPNSVMAPGRGPERGGGGGVSDSSWQQQPGQPPPHSTWNCHSLSLYSATKGSPHPGVGVPTYYNHPEALKREKAGGPQLDRYVRPMMPQKVQLEVGRPQAPLNSFHAAKKPPNQSLPLQPFQLAFGHQVNRQVFRQGPPPPNPVAAFPPQKQQQQQQPQQQQQQQQAALPQMPLFENFYSMPQQPSQQPQDFGLQPAGPLGQSHLAHHSMAPYPFPPNPDMNPELRKALLQDSAPQPALPQVQIPFPRRSRRLSKEGILPPSALDGAGTQPGQEATGNLFLHHWPLQQPPPGSLGQPHPEALGFPLELRESQLLPDGERLAPNGREREAPAMGSEEGMRAVSTGDCGQVLRGGVIQSTRRRRRASQEANLLTLAQKAVELASLQNAKDGSGSEEKRKSVLASTTKCGVEFSEPSLATKRAREDSGMVPLIIPVSVPVRTVDPTEAAQAGGLDEDGKGPEQNPAEHKPSVIVTRRRSTRIPGTDAQAQAEDMNVKLEGEPSVRKPKQRPRPEPLIIPTKAGTFIAPPVYSNITPYQSHLRSPVRLADHPSERSFELPPYTPPPILSPVREGSGLYFNAIISTSTIPAPPPITPKSAHRTLLRTNSAEVTPPVLSVMGEATPVSIEPRINVGSRFQAEIPLMRDRALAAADPHKADLVWQPWEDLESSREKQRQVEDLLTAACSSIFPGAGTNQELALHCLHESRGDILETLNKLLLKKPLRPHNHPLATYHYTGSDQWKMAERKLFNKGIAIYKKDFFLVQKLIQTKTVAQCVEFYYTYKKQVKIGRNGTLTFGDVDTSDEKSAQEEVEVDIKTSQKFPRVPLPRRESPSEERLEPKREVKEPRKEGEEEVPEIQEKEEQEEGRERSRRAAAVKATQTLQANESASDILILRSHESNAPGSAGGQASEKPREGTGKSRRALPFSEKKKKTETFSKTQNQENTFPCKKCGR [ELMSAN1]	-0.0645	0.257
